From patent US6720153B1, “Luciferase reporter bioassay of parathyroid hormone compounds” (Aventis Pharmaceuticals Inc., priority 1998, dated 2004)

Target: T1, PTH receptor (Homo sapiens, UniProt Q03431)
T1 construct: expressed in transfected cells; host or cells: HEK-293
T1 sequence (Q03431 27-593): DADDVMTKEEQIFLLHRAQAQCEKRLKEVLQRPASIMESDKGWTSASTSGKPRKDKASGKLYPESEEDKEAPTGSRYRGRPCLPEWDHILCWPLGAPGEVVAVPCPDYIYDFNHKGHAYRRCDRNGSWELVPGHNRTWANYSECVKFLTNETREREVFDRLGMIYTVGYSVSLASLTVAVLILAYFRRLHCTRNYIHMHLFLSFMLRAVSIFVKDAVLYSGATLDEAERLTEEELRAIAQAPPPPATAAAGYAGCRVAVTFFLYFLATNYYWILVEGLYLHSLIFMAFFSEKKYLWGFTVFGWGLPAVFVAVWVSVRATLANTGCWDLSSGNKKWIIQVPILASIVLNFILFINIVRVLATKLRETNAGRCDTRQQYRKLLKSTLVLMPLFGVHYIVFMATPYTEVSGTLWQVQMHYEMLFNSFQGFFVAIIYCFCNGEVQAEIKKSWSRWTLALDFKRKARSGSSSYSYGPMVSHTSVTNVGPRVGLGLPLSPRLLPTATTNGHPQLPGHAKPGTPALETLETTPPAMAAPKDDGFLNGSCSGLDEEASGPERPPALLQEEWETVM
Experiment: Luciferase reporter assay in hPTH receptor-expressing HEK-293 cells
Type: cell-based
Settings: clones of PTH receptor expressing HEK-293 cells bearing pMCL3zeo luciferase reporter gene; clones selected for assay development
Excerpt: This cell line is obtained as described by Pines et al., Endocrinology, 1994, 135(4), 1713-1716, incorporated herein by reference.
The firefly luciferase reporter gene bearing the cAMP responsive elements is amplified by PCR from the pDMC16LUC vector using the method of Spengler et al., Nature, 1993, 365: 170-175, incorporated herein by reference. The PCR product containing the MMTV promoter, sixteen cAMP responsive elements and the luciferase gene is inserted into the zeocin resistant vector (pUTSV1 from InVitrogen). The final vector, termed pMCL3zeo, is then introduced into PTH receptor expressing HEK-293 cells using the lipofectamine method (reagents and method obtained from Gibco/BRL). Cells incorporating the luciferase reporter gene are selected by including zeocin in the culture medium. By limited dilution, different cell clones are isolated and expanded. These clones are tested for their responsiveness to PTH in terms of luciferase expression.
hPTH receptor-expressing HEK-293 cells bearing the luciferase reporter gene are cultured to 80-90% confluency. […] The luciferase activity in the lysates is measured by the addition of the luciferin substrate (Promega assay kit) to effect light production. The output of light is measured in a Wallac Trilux microbeta plate reader.

parathyroid hormone [PTH]
luciferase induction: 5-6 fold
